Experimental data published in patent publication US20220119534A1 (DRAGONFLY THERAPEUTICS, published 2022).
Values joined by “and” are separate entries in the source; they are usually repeats but may differ in a detail not shown here. Identical values can stand only once.

Assays:
Human CLEC12A-His = biological target: T1, Human CLEC12A-His (human, UniProt Q5QGZ9 65-265); assay: SPR Biacore 8K 37 C; TriNKET captured on anti-hFc chip, hCLEC12A-His as analyte; classical 1:1 fit
T1 construct: Recombinant soluble protein made in house (Dragonfly Tx); The hCLEC12A spot of the HuProt array is written under this molecule as well; also called hCLEC12A-His; hCLEC12A; not shown: His tag
T1 sequence: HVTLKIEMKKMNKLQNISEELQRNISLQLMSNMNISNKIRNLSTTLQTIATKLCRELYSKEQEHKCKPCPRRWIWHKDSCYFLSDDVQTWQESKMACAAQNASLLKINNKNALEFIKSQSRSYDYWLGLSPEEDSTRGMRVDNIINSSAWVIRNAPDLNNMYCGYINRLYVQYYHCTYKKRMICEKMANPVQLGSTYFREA

mFc-hNKG2D [1] = biological target: T2, mFc-hNKG2D (human, UniProt P26718 73-216); assay: SPR Biacore 8K 37 C; mFc-hNKG2D captured on anti-mFc chip, TriNKET as analyte; steady state fit; after 0.02% H2O2 24 h
T2 construct: extracellular domain; Made in house (Dragonfly Tx); the order of tag and ECD follows the name mFc-hNKG2D; also called mFc-tagged human NKG2D; not shown: mouse Fc tag
T2 sequence (looked up): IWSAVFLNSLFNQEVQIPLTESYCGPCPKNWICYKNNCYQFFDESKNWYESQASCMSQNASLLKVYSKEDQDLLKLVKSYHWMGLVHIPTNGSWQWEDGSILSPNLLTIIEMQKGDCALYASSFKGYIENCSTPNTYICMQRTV

mFc-hNKG2D [2] = biological target: T2, mFc-hNKG2D; assay: SPR Biacore 8K 37 C; mFc-hNKG2D captured on anti-mFc chip, TriNKET as analyte; steady state fit; after low pH hold, n=3
mFc-cNKG2D = biological target: T3, mFc-cNKG2D (cynomolgus monkey, UniProt P61252 73-216); assay: SPR Biacore 37 C; mFc-tagged cyno NKG2D dimer, TriNKET as analyte; steady state affinity fit
T3 construct: extracellular domain; Made in house (Dragonfly Tx); also called recombinant cyno NKG2D extracellular domain (ECD); mFc-tagged cyno NKG2D dimer; not shown: mouse Fc tag
T3 sequence (looked up): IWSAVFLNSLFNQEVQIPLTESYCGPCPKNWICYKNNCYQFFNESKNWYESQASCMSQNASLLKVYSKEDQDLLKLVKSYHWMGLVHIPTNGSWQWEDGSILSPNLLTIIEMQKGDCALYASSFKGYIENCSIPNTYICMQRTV

mFc-hNKG2D [3] = biological target: T4, mFc-hNKG2D (human, UniProt P26718 73-216); assay: SPR; control sample (pH 5 stress study)
T4 construct: extracellular domain; Recombinant mFc-tagged NKG2D dimer, made in house; also called human NKG2D; not shown: mouse Fc tag
T4 sequence (looked up): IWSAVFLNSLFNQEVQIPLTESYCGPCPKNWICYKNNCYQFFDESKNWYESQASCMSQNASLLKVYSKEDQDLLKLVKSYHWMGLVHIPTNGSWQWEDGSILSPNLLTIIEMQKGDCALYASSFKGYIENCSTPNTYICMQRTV

Human CD16a V158 = biological target: T5, Human CD16a V158 (human, UniProt P08637 17-208, biotinylated); assay: SPR; control sample (pH 5 stress study)
T5 construct: Bought recombinant receptor; also called hCD16a (V158); hFcγRIIIa V158
T5 sequence (P08637 17-208 F176V limits assumed): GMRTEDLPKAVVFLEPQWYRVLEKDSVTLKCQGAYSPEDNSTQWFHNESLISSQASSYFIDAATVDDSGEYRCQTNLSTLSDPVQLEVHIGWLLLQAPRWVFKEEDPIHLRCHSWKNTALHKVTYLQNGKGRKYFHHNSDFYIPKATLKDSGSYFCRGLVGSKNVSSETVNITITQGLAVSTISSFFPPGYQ

[4] = biological target: T6, human CLEC12A expressed on cells (human, UniProt Q5QGZ9 1-265); assay: flow cytometry (gMFI) on CLEC12A+ PL-21 AML cells
T6 construct: Transduced isogenic cells or endogenous expression on AML cells; also called RMA-hCLEC12A; Ba/F3-hCLEC12A
T6 sequence: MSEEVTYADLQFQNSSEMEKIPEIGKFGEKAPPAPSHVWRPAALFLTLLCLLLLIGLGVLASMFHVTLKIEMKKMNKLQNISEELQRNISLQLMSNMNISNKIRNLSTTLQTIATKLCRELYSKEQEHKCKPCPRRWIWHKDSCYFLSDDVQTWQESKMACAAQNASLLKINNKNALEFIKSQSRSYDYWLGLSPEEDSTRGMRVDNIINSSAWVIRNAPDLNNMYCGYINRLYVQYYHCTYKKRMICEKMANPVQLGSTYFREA

B1: F3'-1602 TriNKET (bispecific antibody, human IgG1, kappa)
chain: QLQLQESGPGLVKPSETLSLTCTVSGFSLTNYGLHWIRQPPGKCLEWIGVIWSGGKTDYNPSLKSRVTISKDTSKNQFSLKLSSVQAADTAVYYCAKYDYDDSLDYWGQGTLVTVSSGGGGSGGGGSGGGGSGGGGSDIQMTQSPSSLSASVGDRVTITCHASQNINFWLSWYQQKPGKAPKLLIYEASNLHTGVPSRFSGSGSGTRFTLTISSLQPEDIATYYCQQSHSYPLTFGCGTKLEIKGSDKTHTCPPCPAPELLGGPSVFLFPPKPKDTLMISRTPEVTCVVVDVSHEDPEVKFNWYVDGVEVHNAKTKPREEQYNSTYRVVSVLTVLHQDWLNGKEYKCKVSNKALPAPIEKTISKAKGQPREPRVYTLPPCRDELTKNQVSLTCLVKGFYPSDIAVEWESNGQPENNYKTTPPVLVSDGSFTLYSKLTVDKSRWQQGNVFSCSVMHEALHNHYTQKSLSLSPG
heavy: EVQLVESGGGLVKPGGSLRLSCAASGFTFSSYSMNWVRQAPGKGLEWVSSISSSSSYIYYADSVKGRFTISRDNAKNSLYLQMNSLRAEDTAVYYCARGAPIGAAAGWFDPWGQGTLVTVSSASTKGPSVFPLAPSSKSTSGGTAALGCLVKDYFPEPVTVSWNSGALTSGVHTFPAVLQSSGLYSLSSVVTVPSSSLGTQTYICNVNHKPSNTKVDKKVEPKSCDKTHTCPPCPAPELLGGPSVFLFPPKPKDTLMISRTPEVTCVVVDVSHEDPEVKFNWYVDGVEVHNAKTKPREEQYNSTYRVVSVLTVLHQDWLNGKEYKCKVSNKALPAPIEKTISKAKGQPREPQVCTLPPSRDELTENQVSLTCLVKGFYPSDIAVEWESNGQPENNYKTTPPVLDSDGSFFLYSWLTVDKSRWQQGNVFSCSVMHEALHNHYTQKSLSLSPG
light: DIQMTQSPSSVSASVGDRVTITCRASQGISSWLAWYQQKPGKAPKLLIYAASSLQSGVPSRFSGSGSGTDFTLTISSLQPEDFATYYCQQGVSFPRTFGGGTKVEIKRTVAAPSVFIFPPSDEQLKSGTASVVCLLNNFYPREAKVQWKVDNALQSGNSQESVTEQDSKDSTYSLSSTLTLSKADYEKHKVYACEVTHQGLSSPVTKSFNRGEC
notes: Trispecific F3' format: CLEC12A scFv-Fc paired with NKG2D Fab-Fc; Stressed and control samples of the stability studies are the same molecule; also called AB0237
Human CLEC12A-His
  Kd: 0.8 nM
  koff: 0.000895 s⁻¹
  kon: 1.11e+06 M⁻¹ s⁻¹
mFc-hNKG2D [1]
  Kd: 732 nM
mFc-hNKG2D [2]
  Kd: 672 nM
mFc-cNKG2D
  Kd: 829 nM and 828 nM and 935 nM and 719 nM

B2: AB0192 TriNKET (other)
chain: EVQLVESGGGVVQPGGSLRLSCAASGFTFNAFGMHWVRQAPGKCLEWVAFISSGSTSIYYANTVKGRFTISRDNSKNTLYLQMNSLRAEDTAVYYCARDGYPTGGAMDYWGQGTSVTVSSGGGGSGGGGSGGGGSGGGGSDIQMTQSPSSLSASVGDRVTITCKASQDIYNYLSWFQQKPGKAPKPLIYRANILVSGVPSRFSGSGSGQDYTFTISSLQPEDIATYYCLQFDAFPFTFGCGTKLEIKGSDKTHTCPPCPAPELLGGPSVFLFPPKPKDTLMISRTPEVTCVVVDVSHEDPEVKFNWYVDGVEVHNAKTKPREEQYNSTYRVVSVLTVLHQDWLNGKEYKCKVSNKALPAPIEKTISKAKGQPREPRVYTLPPCRDELTKNQVSLTCLVKGFYPSDIAVEWESNGQPENNYKTTPPVLVSDGSFTLYSKLTVDKSRWQQGNVFSCSVMHEALHNHYTQKSLSLSPG
heavy: EVQLVESGGGLVKPGGSLRLSCAASGFTFSSYSMNWVRQAPGKGLEWVSSISSSSSYIYYADSVKGRFTISRDNAKNSLYLQMNSLRAEDTAVYYCARGAPIGAAAGWFDPWGQGTLVTVSSASTKGPSVFPLAPSSKSTSGGTAALGCLVKDYFPEPVTVSWNSGALTSGVHTFPAVLQSSGLYSLSSVVTVPSSSLGTQTYICNVNHKPSNTKVDKKVEPKSCDKTHTCPPCPAPELLGGPSVFLFPPKPKDTLMISRTPEVTCVVVDVSHEDPEVKFNWYVDGVEVHNAKTKPREEQYNSTYRVVSVLTVLHQDWLNGKEYKCKVSNKALPAPIEKTISKAKGQPREPQVCTLPPSRDELTENQVSLTCLVKGFYPSDIAVEWESNGQPENNYKTTPPVLDSDGSFFLYSWLTVDKSRWQQGNVFSCSVMHEALHNHYTQKSLSLSPG
light: DIQMTQSPSSVSASVGDRVTITCRASQGISSWLAWYQQKPGKAPKLLIYAASSLQSGVPSRFSGSGSGTDFTLTISSLQPEDFATYYCQQGVSFPRTFGGGTKVEIKRTVAAPSVFIFPPSDEQLKSGTASVVCLLNNFYPREAKVQWKVDNALQSGNSQESVTEQDSKDSTYSLSSTLTLSKADYEKHKVYACEVTHQGLSSPVTKSFNRGEC
notes: the condition stands under assay; also called AB0192 Lot AB0192-005
mFc-hNKG2D [3]
  Kd: 588 nM
  koff: 0.122 s⁻¹
  kon: 208000 M⁻¹ s⁻¹
Human CD16a V158
  Kd: 171 nM
  koff: 0.0199 s⁻¹
  kon: 117000 M⁻¹ s⁻¹

B3: F3'-1602 TriNKET (other)
chain: QLQLQESGPGLVKPSETLSLTCTVSGFSLTNYGLHWIRQPPGKCLEWIGVIWSGGKTDYNPSLKSRVTISKDTSKNQFSLKLSSVQAADTAVYYCAKYDYDDSLDYWGQGTLVTVSSGGGGSGGGGSGGGGSGGGGSDIQMTQSPSSLSASVGDRVTITCHASQNINFWLSWYQQKPGKAPKLLIYEASNLHTGVPSRFSGSGSGTRFTLTISSLQPEDIATYYCQQSHSYPLTFGCGTKLEIKGSDKTHTCPPCPAPELLGGPSVFLFPPKPKDTLMISRTPEVTCVVVDVSHEDPEVKFNWYVDGVEVHNAKTKPREEQYNSTYRVVSVLTVLHQDWLNGKEYKCKVSNKALPAPIEKTISKAKGQPREPRVYTLPPCRDELTKNQVSLTCLVKGFYPSDIAVEWESNGQPENNYKTTPPVLVSDGSFTLYSKLTVDKSRWQQGNVFSCSVMHEALHNHYTQKSLSLSPG
heavy: EVQLVESGGGLVKPGGSLRLSCAASGFTFSSYSMNWVRQAPGKGLEWVSSISSSSSYIYYADSVKGRFTISRDNAKNSLYLQMNSLRAEDTAVYYCARGAPIGAAAGWFDPWGQGTLVTVSSASTKGPSVFPLAPSSKSTSGGTAALGCLVKDYFPEPVTVSWNSGALTSGVHTFPAVLQSSGLYSLSSVVTVPSSSLGTQTYICNVNHKPSNTKVDKKVEPKSCDKTHTCPPCPAPELLGGPSVFLFPPKPKDTLMISRTPEVTCVVVDVSHEDPEVKFNWYVDGVEVHNAKTKPREEQYNSTYRVVSVLTVLHQDWLNGKEYKCKVSNKALPAPIEKTISKAKGQPREPQVCTLPPSRDELTENQVSLTCLVKGFYPSDIAVEWESNGQPENNYKTTPPVLDSDGSFFLYSWLTVDKSRWQQGNVFSCSVMHEALHNHYTQKSLSLSPG
light: DIQMTQSPSSVSASVGDRVTITCRASQGISSWLAWYQQKPGKAPKLLIYAASSLQSGVPSRFSGSGSGTDFTLTISSLQPEDFATYYCQQGVSFPRTFGGGTKVEIKRTVAAPSVFIFPPSDEQLKSGTASVVCLLNNFYPREAKVQWKVDNALQSGNSQESVTEQDSKDSTYSLSSTLTLSKADYEKHKVYACEVTHQGLSSPVTKSFNRGEC
notes: CLEC12A scFv-Fc, NKG2D A49MI Fab-Fc, human IgG1 Fc; also called AB0237
[4]
  EC50: 1.2 nM
